In the assay the target is T1, S6N, N-terminal fragment of Surfeit locus protein 6 (SURF6), residues 1-182 (human, UniProt O75683 1-182).
T1 construct: Surfeit locus protein 6 (SURF6), human, 361 amino acids; N-terminal construct of residues 1-182 with R-motifs R1 and R2; In imaging experiments 10% was labelled with Alexa Fluor 647 at Cys19; also called SURF6 N-terminal construct; source: E. coli BL21 Rosetta 2 (DE3), purified from inclusion bodies (Ni-NTA under denaturing conditions, TEV cleavage, C4 HPLC)
T1 sequence (looked up): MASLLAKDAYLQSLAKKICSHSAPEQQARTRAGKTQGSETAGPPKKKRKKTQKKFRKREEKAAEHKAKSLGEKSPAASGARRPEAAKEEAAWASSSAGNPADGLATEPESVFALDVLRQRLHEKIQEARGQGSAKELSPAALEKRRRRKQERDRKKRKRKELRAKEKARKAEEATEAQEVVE
The assay is described as follows: not stated; method and conditions not shown in the main text (Supplementary Fig. 13). The settings on record: both partners purified.

One may read the Kd as a measure of binding affinity in units of concentration.

B1: IDR of NPM1 (domain or fragment, UniProt P06748 120-240, looked up)
chain: EEDAESEDEEEEDVKLLSISGKRSAPGGGSKVPQKKVKLAADEDDDDDDEEDDDEDDDDDDFDDEEAEEKAPVKKSIRDTPAKNAQKSNQNGKDSKPSSTPRSKGQESFKKQEKTPKTPKG
notes: Nucleophosmin (NPM1), central intrinsically disordered region; also called NPM1-IDR
In turn, B1 had an equilibrium dissociation constant (Kd) of 0.35 µM.

The values are drawn from publication PMC6265330, “Compositional adaptability in NPM1-SURF6 scaffolding networks enabled by dynamic switching of phase separation mechanisms” (Nature Communications, 2018).
